This data set can be described thus: background-corrected fluorescence of 3'-dye-labeled ssDNA relative to brightest sequence (3'-GCGCG) (fraction); higher = brighter dye fluorescence (less quenching). As to the method:
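Single-stranded DNA is synthesized in situ on glass microarrays by 5'->3' photolithographic synthesis, with a Cy3 or Cy5 phosphoramidite coupled at the 3' end next to all 1024 permuted pentamers P1-P5. The construct is 5'-T5-(ACGT minus P5..P1 trinucleotides)-T15-P5P4P3P2P1-dye-3'; the dye is a 3' terminal modification, not part of the sequence. Arrays were scanned at 532 nm (Cy3) or 635 nm (Cy5), background from unlabeled oligos was subtracted, and values are averaged over 10 replicate features per array and at least 3 independent syntheses.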

± gives the standard error.

For “TTTTTGCAGCATCATGAGCATTTTTTTTTTTTTTTTTGCT [TCGTT]”, the background-corrected fluorescence runs as follows: (dye: Cy3 (3' terminal)) 0.482 ± 0.014; (dye: Cy5 (3' terminal)) 0.361 ± 0.019.

Regarding “TTTTTGCAGCATCATGATCATTTTTTTTTTTTTTTTTGCG [GCGTT]”, the background-corrected fluorescence by setting is: (dye: Cy3 (3' terminal)) 0.559 ± 0.028; (dye: Cy5 (3' terminal)) 0.46 ± 0.036.

Turning to “TTTTTGCAGCATCATGATGATTTTTTTTTTTTTTTTTGCC [CCGTT]”, the background-corrected fluorescence reads like this: (dye: Cy3 (3' terminal)) 0.41 ± 0.015; (dye: Cy5 (3' terminal)) 0.322 ± 0.059.

For the sequence “TTTTTGCAGCATCATGATGCTTTTTTTTTTTTTTTTTGCA [ACGTT]”, the background-corrected fluorescence reads like this: (dye: Cy3 (3' terminal)) 0.546 ± 0.025; (dye: Cy5 (3' terminal)) 0.456 ± 0.039.

In the case of “TTTTTGCAGCATCATGCGCATTTTTTTTTTTTTTTTTGAT [TAGTT]”, the background-corrected fluorescence turned out to be 0.578 ± 0.013 (dye: Cy3 (3' terminal)) and 0.453 ± 0.03 (dye: Cy5 (3' terminal)).

For the sequence “TTTTTGCAGCATCATGCTCATTTTTTTTTTTTTTTTTGAG [GAGTT]”, the background-corrected fluorescence turned out to be 0.542 ± 0.0086 (dye: Cy3 (3' terminal)) and 0.429 ± 0.016 (dye: Cy5 (3' terminal)).

With “TTTTTGCAGCATCATGCTGATTTTTTTTTTTTTTTTTGAC [CAGTT]”, the background-corrected fluorescence reads like this: (dye: Cy3 (3' terminal)) 0.461 ± 0.024; (dye: Cy5 (3' terminal)) 0.354 ± 0.04.

For the sequence “TTTTTGCAGCATCATGCTGCTTTTTTTTTTTTTTTTTGAA [AAGTT]”, the background-corrected fluorescence (dye: Cy3 (3' terminal)) worked out at 0.634 ± 0.019 and the background-corrected fluorescence (dye: Cy5 (3' terminal)) was determined as 0.527 ± 0.03.

In turn, “TTTTTGCAGCATGAGCAGCATTTTTTTTTTTTTTTTTCTT” came in with a background-corrected fluorescence (dye: Cy3 (3' terminal)) of 0.481 ± 0.015 and a background-corrected fluorescence (dye: Cy5 (3' terminal)) of 0.348 ± 0.026.

On to “TTTTTGCAGCATGAGCATCATTTTTTTTTTTTTTTTTCTG [GTCTT]”, for which the background-corrected fluorescence is 0.472 ± 0.026 (dye: Cy3 (3' terminal)) and 0.338 ± 0.046 (dye: Cy5 (3' terminal)).

“TTTTTGCAGCATGAGCATGATTTTTTTTTTTTTTTTTCTC [CTCTT]”: the background-corrected fluorescence (dye: Cy3 (3' terminal)) amounted to 0.389 ± 0.03 and the background-corrected fluorescence (dye: Cy5 (3' terminal)) was 0.272 ± 0.035.

As to “TTTTTGCAGCATGAGCATGCTTTTTTTTTTTTTTTTTCTA [ATCTT]”, the background-corrected fluorescence (dye: Cy3 (3' terminal)) worked out at 0.467 ± 0.02 and the background-corrected fluorescence (dye: Cy5 (3' terminal)) is 0.404 ± 0.036.

On to “TTTTTGCAGCATGATCAGCATTTTTTTTTTTTTTTTTCGT [TGCTT]”, for which the background-corrected fluorescence by setting is: (dye: Cy3 (3' terminal)) 0.564 ± 0.013; (dye: Cy5 (3' terminal)) 0.432 ± 0.025.

For “TTTTTGCAGCATGATCATCATTTTTTTTTTTTTTTTTCGG [GGCTT]”, the background-corrected fluorescence (dye: Cy3 (3' terminal)) was determined as 0.59 ± 0.022 and the background-corrected fluorescence (dye: Cy5 (3' terminal)) was 0.485 ± 0.024.

On to “TTTTTGCAGCATGATCATGATTTTTTTTTTTTTTTTTCGC [CGCTT]”, for which the background-corrected fluorescence is, setting by setting: (dye: Cy3 (3' terminal)) 0.503 ± 0.031; (dye: Cy5 (3' terminal)) 0.406 ± 0.088.

For “TTTTTGCAGCATGATCATGCTTTTTTTTTTTTTTTTTCGA [AGCTT]”, the background-corrected fluorescence by setting is: (dye: Cy3 (3' terminal)) 0.645 ± 0.025; (dye: Cy5 (3' terminal)) 0.533 ± 0.067.

For “TTTTTGCAGCATGATGAGCATTTTTTTTTTTTTTTTTCCT [TCCTT]”, the background-corrected fluorescence is 0.444 ± 0.021 (dye: Cy3 (3' terminal)) and 0.325 ± 0.036 (dye: Cy5 (3' terminal)).

Take “TTTTTGCAGCATGATGATCATTTTTTTTTTTTTTTTTCCG [GCCTT]”: the background-corrected fluorescence is, setting by setting: (dye: Cy3 (3' terminal)) 0.488 ± 0.011; (dye: Cy5 (3' terminal)) 0.366 ± 0.035.

As to “TTTTTGCAGCATGATGATGATTTTTTTTTTTTTTTTTCCC [CCCTT]”, the background-corrected fluorescence came to 0.35 ± 0.0099 (dye: Cy3 (3' terminal)) and 0.266 ± 0.016 (dye: Cy5 (3' terminal)).

With “TTTTTGCAGCATGATGATGCTTTTTTTTTTTTTTTTTCCA [ACCTT]”, the background-corrected fluorescence (dye: Cy3 (3' terminal)) is 0.453 ± 0.026 and the background-corrected fluorescence (dye: Cy5 (3' terminal)) was 0.35 ± 0.028.

Consider “TTTTTGCAGCATGATGCGCATTTTTTTTTTTTTTTTTCAT [TACTT]”, for which the background-corrected fluorescence came to 0.519 ± 0.033 (dye: Cy3 (3' terminal)) and 0.378 ± 0.021 (dye: Cy5 (3' terminal)).

Consider “TTTTTGCAGCATGATGCTCATTTTTTTTTTTTTTTTTCAG [GACTT]”, for which the background-corrected fluorescence (dye: Cy3 (3' terminal)) worked out at 0.506 ± 0.032 and the background-corrected fluorescence (dye: Cy5 (3' terminal)) turned out to be 0.358 ± 0.027.

On to “TTTTTGCAGCATGATGCTGATTTTTTTTTTTTTTTTTCAC [CACTT]”, for which the background-corrected fluorescence is 0.385 ± 0.01 (dye: Cy3 (3' terminal)) and 0.289 ± 0.016 (dye: Cy5 (3' terminal)).

With “TTTTTGCAGCATGATGCTGCTTTTTTTTTTTTTTTTTCAA [AACTT]”, the background-corrected fluorescence (dye: Cy3 (3' terminal)) worked out at 0.545 ± 0.04 and the background-corrected fluorescence (dye: Cy5 (3' terminal)) stood at 0.422 ± 0.055.

With “TTTTTGCAGCATGCGCAGCATTTTTTTTTTTTTTTTTATT”, the background-corrected fluorescence reads like this: (dye: Cy3 (3' terminal)) 0.5242 ± 0.0046; (dye: Cy5 (3' terminal)) 0.403 ± 0.029.

As for “TTTTTGCAGCATGCGCATCATTTTTTTTTTTTTTTTTATG [GTATT]”, the background-corrected fluorescence was 0.467 ± 0.015 (dye: Cy3 (3' terminal)) and 0.366 ± 0.024 (dye: Cy5 (3' terminal)).

Regarding “TTTTTGCAGCATGCGCATGATTTTTTTTTTTTTTTTTATC [CTATT]”, the background-corrected fluorescence is, setting by setting: (dye: Cy3 (3' terminal)) 0.473 ± 0.024; (dye: Cy5 (3' terminal)) 0.312 ± 0.018.

Source of the values: the supplement of paper PMC9428881.
